The labels stand for the following.
B1: LINE1-full (parent)
chain: UACGUAGGUGGUUUUCCCCUGAUAGUGCUAAGGGGGCCUGGAAGUUUGGACUGGGCAGAGCUCAACACAGCGUGGCAAAGUGGCUGUGGCUAGACUGCCUCUCUGGAUUCCUCGUCACUCAGCAGGGCAUCUCUGAGAGAAAUGCC

The variants in this series derive from B1. Nature of the series: self-cleavage, relative activity (ratio to wild type); higher = more cleavage; in vitro, sequencing; the parent is a self-cleaving ribozyme.
Take UACGUAGGUGGUUUUCCCCUGAUAGUGCUAAGGGGGCCUGGAAGUUUGGACCGGGCAGAGCUCAACACAGCGUGGCAAAGUAGCUGUGGCUAGACUGCCUCUCUGGAUUCCUCGUCACUCAGCAGGGCAUCUCUGAGAGAAAUGCC [U52C G82A]: the self-cleavage turned out to be 1.7.
For the variant UACGUAGGUGGUUUUCCCCUGAUAGUGCUAAGGGGGCCUGGAAGUUUGGACCGGGCAGAGCUCAACACAGCGUGGCAAAGUGGCUGUGGCUAGACUGCCUCUCUGGAUUCCUCGUCACUUAGCAGGGCAUCUCUGAGAGAAAUGCC [U52C C120U], the self-cleavage was 1.77.
With UACGUAGGUGGUUUUCCCCUGAUAGUGCUAAGGGGGCCUGGAAGUUUGGACCGGGCAUAGCUCAACACAGCGUGGCAAAGUGGCUGUGGCUAGACUGCCUCUCUGGAUUCCUCGUCACUCAGCAGGGCAUCUCUGAGAGAAAUGCC [U52C G58U] the figure was 0.04; with UACGUAGGUGGUUUUCCCCUGAUAGUGCUAAGGGGGCCUGGAAGUUUGGACCGGGCAGAGCUCAACACAGCGUGGCAAAGUGGUUGUGGCUAGACUGCCUCUCUGGAUUCCUCGUCACUCAGCAGGGCAUCUCUGAGAGAAAUGCC [U52C C84U], 0.15; with UACGUAGGUGGUUUUCCCCUGAUAGUGCUAAGGGGGCCUGGAAGUUUGGACCGGGCAGAGCUCAACACAGCGUGGCAAAGUGGCUGUGGCUAGACUGCCUCUCUGGAUUCAUCGUCACUCAGCAGGGCAUCUCUGAGAGAAAUGCC [U52C C111A], 1.14.
For UACGUAGGUGGUUUUCCCCUGAUAGUGCUAAGGGGGCCUGGAAGUUUGGACCGGGCAGAGCUCAACACAGCGUGGCAAAGUGGCUGUGGCUAGACUGCCUCUCUGGACUCCUCGUCACUCAGCAGGGCAUCUCUGAGAGAAAUGCC [U52C U108C], the self-cleavage was found to be 1.68.
Take UACGUAGGUGGUUUUCCCCUGAUAGUGCUAAGGGGGCCUGGAAGUUUGGACCGGGCAGAGCUCAACACAGCGUGGCAAAGUGGCUGUGGCUAGACUGCCUCUCUGGAUUCCUCGUCACUCAGCAGGGCAUCUCUGAAAGAAAUGCC [U52C G137A]: the self-cleavage was found to be 0.89.
In the case of UACGUAGGUGGUUUUCCCCUGAUAGUGCUAAGGGGGCCUGGAAGUUUGGACCGGGCAGAGCUCAACACAGCGUGGCAAAGUGGCUGUGGCUAGACUGCCACUCUGGAUUCCUCGUCACUCAGCAGGGCAUCUCUGAGAGAAAUGCC [U52C U100A] it was 0.63; in that of UACGUAGGUGGUUUUCCCCUGAUAGUGCUAAGGGGGCCUGGAAGUUUGGACCGGGCAGAGCUCAACACAGCGUGGCAAAGUGGCUGUGGCUAGACUGCCCCUCUGGAUUCCUCGUCACUCAGCAGGGCAUCUCUGAGAGAAAUGCC [U52C U100C], 2.25; in that of UACGUAGGUGGUUUUCCCCUGAUAGUGCUAAGGGGGCCUGGAAGUUUGGACCGGGCAGAGCUCAACACAGCGUGGCAAAGUGGCUGUGGCUAGACUGCCUCUCUGGAUUCCACGUCACUCAGCAGGGCAUCUCUGAGAGAAAUGCC [U52C U112A], 0.99.
With UACGUAGGUGGUUUUCCCCUGAUAGUGCUAAGGGGGCCUGGAAGUUUGGACCGGGCAGAGCUCAACACAGCGUGGCAAAGUGGCUGUGGCUAGACUGCCUCUCUGGAUUCCUCGUCACUCAGCAGGGCAUCACUGAGAGAAAUGCC [U52C U132A] the figure was 1.88; with UACGUAGGUGGUUUUCCCCUGAUAGUGCUAAGGGGGCCUGGAAGUUUGGACCGGGCAGAGCUCAACACAGCGUGGCAAAGUGGCUGUGGCUAGACUGCCUCUCUGGAUUCCUCGUCACUCAGCAGGGCAUCGCUGAGAGAAAUGCC [U52C U132G], 1.93.
In the case of UACGUAGGUGGUUUUCCCCUGAUAGUGCUAAGGGGGCCUGGAAGUUUGGACCGGGCAGAGCUCAACACAGCGUUGCAAAGUGGCUGUGGCUAGACUGCCUCUCUGGAUUCCUCGUCACUCAGCAGGGCAUCUCUGAGAGAAAUGCC [U52C G74U] it was 1.79.
Turning to UACGUAGGUGGUUUUCCCCUGAUAGUGCUAAGGGGGCCUGGAAGUUUGGACCGGGCAGAGCUCAACACAGCGAGGCAAAGUGGCUGUGGCUAGACUGCCUCUCUGGAUUCCUCGUCACUCAGCAGGGCAUCUCUGAGAGAAAUGCC [U52C U73A], the self-cleavage amounted to 1.21.
In the case of UACGUAGGUGGUUUUCCCCUGAUAGUGCUAAGGGGGCCUGGAAGUUUGGACCGGGCAGAGCUCAACACAGCGCGGCAAAGUGGCUGUGGCUAGACUGCCUCUCUGGAUUCCUCGUCACUCAGCAGGGCAUCUCUGAGAGAAAUGCC [U52C U73C] it was 0.54; in that of UACGUAGGUGGUUUUCCCCUGAUAGUGCUAAGGGGGCCUGGAAGUUUGGACCGGACAGAGCUCAACACAGCGUGGCAAAGUGGCUGUGGCUAGACUGCCUCUCUGGAUUCCUCGUCACUCAGCAGGGCAUCUCUGAGAGAAAUGCC [U52C G55A], 0.14.
In the case of UACGUAGGUGGUUUUCCCCUGAUAGUGCUAAGGGGGCCUGGAAGUUUGGACCGGGCAGAGCUCAACACAGCGUGGCAAAGUGGCUGUGGCUAGACUGCCUCUCUGUAUUCCUCGUCACUCAGCAGGGCAUCUCUGAGAGAAAUGCC [U52C G106U] it was 0.8.
With UACGUAGGUGGUUUUCCCCUGAUAGUGCUAAGGGGGCCUGGAAGUUUGGACCGGGCAGAGCGCAACACAGCGUGGCAAAGUGGCUGUGGCUAGACUGCCUCUCUGGAUUCCUCGUCACUCAGCAGGGCAUCUCUGAGAGAAAUGCC [U52C U62G] the figure was 0.
With UACGUAGGUGGUUUUCCCCUGAUAGUGCUAAGGGGGCCUGGAAGUUUGGACCGGGCAGAGCUCAACACAGCGUGGCAAAGUGGCUGAGGCUAGACUGCCUCUCUGGAUUCCUCGUCACUCAGCAGGGCAUCUCUGAGAGAAAUGCC [U52C U87A], the self-cleavage amounted to 0.08.
In the case of UACGUAGGUGGUUUUCCCCUGAUAGUGCUAAGGGGGCCUGGAAGUUUGGACCGGGCAGAGCUCAACACAGCGUGGCAAAGUGGCUGGGGCUAGACUGCCUCUCUGGAUUCCUCGUCACUCAGCAGGGCAUCUCUGAGAGAAAUGCC [U52C U87G] it was 0.
With UACGUAGGUGGUUUUCCCCUGAUAGUGCUAAGGGGGCCUGGAAGUUUGGACCGGGCAGAGCUCAACACAGCGUGGCAAAGUGGCUGUGGCUAGACCGCCUCUCUGGAUUCCUCGUCACUCAGCAGGGCAUCUCUGAGAGAAAUGCC [U52C U96C] the figure was 0.02.
As to UACGUAGGUGGUUUUCCCCUGAUAGUGCUAAGGGGGCCUGGAAGUUUGGACCGGGCAGAGCUCAACACAGCGUGGCAAAGUGGCUGUGGCUAGACUGCCUCUCUGGAUUCCUCGUCACUCAGCAGGGAAUCUCUGAGAGAAAUGCC [U52C C128A], the self-cleavage stood at 0.71.
In the case of UACGUAGGUGGUUUUCCCCUGAUAGUGCUAAGGGGGCCUGGAAGUUUGGACCGGGCAGAGCUCAACACAGCGUGGCAAAGUGGCUGUGGCUAGACUGCCUCUCUGGAUUCCUCGCCACUCAGCAGGGCAUCUCUGAGAGAAAUGCC [U52C U115C] it was 1.64; in that of UACGUAGGUGGUUUUCCCCUGAUAGUGCUAAGGGGGCCUGGAAGUUUGGACCGGGCAGAGCUCAACACAGCGUGGCAAAAUGGCUGUGGCUAGACUGCCUCUCUGGAUUCCUCGUCACUCAGCAGGGCAUCUCUGAGAGAAAUGCC [U52C G80A], 1.82.
With UACGUAGGUGGUUUUCCCCUGAUAGUGCUAAGGGGGCCUGGAAGUUUGGACCGGGCAGAGCUCAACACAGCGUGGCAAAGUGGCUGUGGCGAGACUGCCUCUCUGGAUUCCUCGUCACUCAGCAGGGCAUCUCUGAGAGAAAUGCC [U52C U91G] the figure was 0.17.
In the case of UACGUAGGUGGUUUUCCCCUGAUAGUGCUAAGGGGGCCUGGAAGUUUGGACCGGGCAGAGCUCAACACAGCGUGGCAAAGUGGCUGUGGCUAGACUGCCUCUCUGGAUUCCUCGUCACUCAGCAGGGCAUCUCUGAGAGAAAUGCU [U52C C146U] it was 2.19.
In the case of UACGUAGGUGGUUUUCCCCUGAUAGUGCUAAGGGGGCCUGGAAGUUUGGACCGGGCAGAGCUCAACACAGCGUGGCAAAGUGGCUGUGGCUAGACUGCCUCUCUGGAUUCCUCGUCACUCAGCAGGGCAUCUCUGAGAGAAGUGCC [U52C A142G], the self-cleavage worked out at 1.02.
In the case of UACGUAGGUGGUUUUCCCCUGAUAGUGCUAAGGGGGCCUGGAAGUUUGGACCGGGCAGAGCUCAACACAGCGUGACAAAGUGGCUGUGGCUAGACUGCCUCUCUGGAUUCCUCGUCACUCAGCAGGGCAUCUCUGAGAGAAAUGCC [U52C G75A] it was 0.9.
With UACGUAGGUGGUUUUCCCCUGAUAGUGCUAAGGGGGCCUGGAAGUUUGGACCGGGCAGAGCUCAACACAGCGUGGCAAAGUGGCUGUGGCUAGACUGGCUCUCUGGAUUCCUCGUCACUCAGCAGGGCAUCUCUGAGAGAAAUGCC [U52C C98G] the figure was 0.17; with UACGUAGGUGGUUUUCCCCUGAUAGUGCUAAGGGGGCCUGGAAGUUUGGACCUGGCAGAGCUCAACACAGCGUGGCAAAGUGGCUGUGGCUAGACUGCCUCUCUGGAUUCCUCGUCACUCAGCAGGGCAUCUCUGAGAGAAAUGCC [U52C G53U], 1.6; with UACGUAGGUGGUUUUCCCCUGAUAGUGCUAAGGGGGCCUGGAAGUUUGGACCGGGCAGAGCUCAACACAGCGUGGCAAAGUGGCUGUGGCUAGACUGCCUCUCUGGAUUCCUCGUCACUCAGCAGGACAUCUCUGAGAGAAAUGCC [U52C G127A], 0.93.
With UACGUAGGUGGUUUUCCCCUGAUAGUGCUAAGGGGGCCUGGAAGUUUGGACCGGGCAGAGCUCAACACAGCUUGGCAAAGUGGCUGUGGCUAGACUGCCUCUCUGGAUUCCUCGUCACUCAGCAGGGCAUCUCUGAGAGAAAUGCC [U52C G72U], the self-cleavage was determined as 0.41.
In the case of UACGUAGGUGGUUUUCCCCUGAUAGUGCUAAGGGGGCCUGGAAGUUUGGACCGGGCAGAGCUCAACACAGAGUGGCAAAGUGGCUGUGGCUAGACUGCCUCUCUGGAUUCCUCGUCACUCAGCAGGGCAUCUCUGAGAGAAAUGCC [U52C C71A] it was 0.13; in that of UACGUAGGUGGUUUUCCCCUGAUAGUGCUAAGGGGGCCUGGAAGUUUGGACCGGGCAGAGCUCAACACAGCGUGGCAAAGUGGCUGUGGCUAGACUGCCUCUCUGGAUUCCUCGUCACCCAGCAGGGCAUCUCUGAGAGAAAUGCC [U52C U119C], 1.86.
In the case of UACGUAGGUGGUUUUCCCCUGAUAGUGCUAAGGGGGCCUGGAAGUUUGGACCGGGCAGAGCUCAACACAGCGUGGCAAAGUGGCUGUGGCUAGACUGCCUCUCUGGAUUCCUCGUCACUCAGCAUGGCAUCUCUGAGAGAAAUGCC [U52C G125U] it was 1.15; in that of UACGUAGGUGGUUUUCCCCUGAUAGUGCUAAGGGGGCCUGGAAGUUUGGACCGGGCAGAGCUCAACACAGCGUGGCAAAGUGGCUGUGGCUAGACUGCCUCUCUGGAUUCCUCGUCACUCAGCAGAGCAUCUCUGAGAGAAAUGCC [U52C G126A], 1.18.
On to UACGUAGGUGGUUUUCCCCUGAUAGUGCUAAGGGGGCCUGGAAGUUUGGACCGGGCAGAGCUCAACACAGCGUGGCAAAGUGGCUGUGGCUAGACUGCCUCUCUGGAUUCCUCGUCACUCAGCAGUGCAUCUCUGAGAGAAAUGCC [U52C G126U], for which the self-cleavage is 1.31.
With UACGUAGGUGGUUUUCCCCUGAUAGUGCUAAGGGGGCCUGGAAGUUUGGACCGGGCAGAGCUCAACACAGCGUGGCAAAGUGGCUGUGGCUAGACUGCCUCUCUGGAUUCCUUGUCACUCAGCAGGGCAUCUCUGAGAGAAAUGCC [U52C C113U] the figure was 0.99; with UACGUAGGUGGUUUUCCCCUGAUAGUGCUAAGGGGGCCUGGAAGUUUGGACCGGGCAGAGCUCAACACAGCGUGGCAAAGUGGCUGUGGCUAGACUGCCUCUCUGGAUUCCUCGUCACUCAGCAGGGCAUCUCUGAGAGAAAUACC [U52C G144A], 1.73.

For the origin of these results see the RNAGym collection of RNA variant scans (doi:10.7554/elife.90254).
